According to patent publication US5910570:
Like-named read-outs stand apart in the source and are kept apart here.

Assays:
[1] = target: apomucin (deglycosylated mucin) prepared from bovine submaxillary mucin (bovine)
[2] = target: apomucin (deglycosylated mucin) prepared from bovine submaxillary mucin (bovine); remark: listed apart in the source
[3] = target: serine containing acceptor peptide …
[4] = target: serine containing acceptor peptide …; remark: listed apart in the source

Row | Total activity (U), cell lysate [1] [U] | specific activity [2] [U/mg protein] | Km [3] [mM] | Km [4] [mM] | Substance
1 | 16.2 |  |  |  | cloned full-length (membrane bound) bovine GalNAc-transferase expressed in Sf9 cells (enzyme)
2 |  | 2160 | 3.6 | 3.5 | soluble, secreted recombinant bovine GalNAc-transferase (GalNAcTs) expressed in Sf9 cells (enzyme)
